Experiments:
[1] = target: T1, CXCR4 on E17 fetal liver cells (Mus musculus, UniProt P70658); assay: SDF-1 mediated calcium mobilization in E17 fetal liver cells; assay type: cell-based; conditions: wildtype mouse embryo E17 fetal liver cells
T1 construct: the E17 fetal liver cells also express CXCR4; from tissue; host or cells: fetal liver cells of wildtype mouse embryos, E17

MDA MB-231 cells = assay: Matrigel invasion assay; assay type: cell-based, human; conditions: breast tumor cells, 22 hrs
Description: Invasion Assay. Invasion assays were performed as per the manufacturer's instructions. Briefly, chemokines were diluted in HBSS (Life Technologies, Gaithersburg, Md.) supplemented with 0.1% bovine albumin (Sigma Chemical Company, St. Louis, Mo.) and added to the lower wells of BD BioCoat Matrigel Invasion chambers (BD Biosciences, Bedford, Mass.). MDA MB-231 cells were added to the matrigel coated inserts and the plates were incubated at 37° C. in a humidified incubator at a 5% CO2/air mixture for 22 hrs. Following this incubation, the inserts were transferred to a new plate and the media in the inserts was removed. Using a cotton swab the matrigel plug was removed from each well. The filters were then stained using Protocol Hema staining system (Biochemical Sciences, Inc., Swedesboro, N.J.). Invading cells were examined under a Nikon Elipse E800 (Nikon, Inc., Melville, N.Y.) microscope with a 40× lens. Cells were counted in 5 fields of view of each filter. Data represent the mean of 5 fields of view from each filter tested in triplicate.

[2] = system: tumor cells expressing the tumor correlated form of CXCR4; assay: Serum starvation apoptosis of tumor cells; assay type: cell-based; conditions: serum starved overnight, compared to untreated controls
[3] = target: T2, CXCR4 on MCF-7 cells (Homo sapiens); assay: 125I SDF-1α competition binding on MCF-7 cells; conditions: cold competitor array
T2 construct: host or cells: MCF-7 (whole cells)
T2 sequence (P25106 whole entry): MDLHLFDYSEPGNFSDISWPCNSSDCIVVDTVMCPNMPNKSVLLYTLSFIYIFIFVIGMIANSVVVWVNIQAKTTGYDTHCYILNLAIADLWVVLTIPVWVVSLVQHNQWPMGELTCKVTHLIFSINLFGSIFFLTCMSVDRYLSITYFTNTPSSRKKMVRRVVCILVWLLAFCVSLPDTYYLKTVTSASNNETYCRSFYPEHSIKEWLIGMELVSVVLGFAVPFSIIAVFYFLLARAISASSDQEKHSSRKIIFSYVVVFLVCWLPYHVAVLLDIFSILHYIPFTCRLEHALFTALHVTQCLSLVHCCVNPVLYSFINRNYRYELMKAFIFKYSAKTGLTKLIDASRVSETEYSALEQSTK
Description: (§1) Binding Analysis. We employed our technique, DisplaceMax, to examine the global profile of chemokine ligand interaction with CXCR4 on MCF-7 and CEM-NKr cells. This technology employs expanded, efficiency-maximized radioligand binding using filtration protocols as described previously (Kledal T N, et al. Science 277:1656-1659 (1997); Dairaghi, et al. J Biol Chem 274:21569-74 (1999); Gosling, J. et al. J Immunol 164:2851-6 (2000)). […] Where indicated, anti-CXCR4 antibodies or isotype controls were included in the binding reactions. In these experiments cells were pre-incubated with the indicated concentration of antibody for 30 min at 4° C. prior to the addition of radiolabeled chemokine. Small molecules were included in some assays, where indicated. In these assays the compound was added to the plate to the indicated concentration followed by the addition of radiolabeled chemokine. All assays were then incubated for 3 hrs at 4° C. with gentle agitation. Following incubation in all binding assays, reactions were aspirated onto PEI-treated GF/B glass filters (Packard) using a cell harvester (Packard) and washed twice (25 mM HEPES, 500 mM NaCl, 1 mM CaCl2, 5 mM MgCl2, adjusted to pH 7.1). Scintillant (MicroScint 10, Packard) was added to the wells, and the filters were counted in a Packard Topcount scintillation counter. Data were analyzed and plotted using Prism (GraphPad Prism version 3.0a for Macintosh, GraphPad Software).

CXCR4 on MCF-7 cells [4] = target: T3, CXCR4 on MCF-7 cells (Homo sapiens, UniProt P25106); assay: 125I SDF-1α competition binding on MCF-7 cells
T3 construct: host or cells: MCF-7 (whole cells)
T3 sequence (P25106 whole entry): as above
Description: as §1

[5] = target: T4, CXCR4 on E13 fetal liver cells (Mus musculus); assay: Radiolabeled human-SDF-1 binding competition on E13 fetal liver cells; conditions: wildtype mouse embryo E13 fetal liver cells
T4 construct: from tissue; host or cells: fetal liver cells of wildtype mouse embryos, E13
T4 sequence (P56485 whole entry): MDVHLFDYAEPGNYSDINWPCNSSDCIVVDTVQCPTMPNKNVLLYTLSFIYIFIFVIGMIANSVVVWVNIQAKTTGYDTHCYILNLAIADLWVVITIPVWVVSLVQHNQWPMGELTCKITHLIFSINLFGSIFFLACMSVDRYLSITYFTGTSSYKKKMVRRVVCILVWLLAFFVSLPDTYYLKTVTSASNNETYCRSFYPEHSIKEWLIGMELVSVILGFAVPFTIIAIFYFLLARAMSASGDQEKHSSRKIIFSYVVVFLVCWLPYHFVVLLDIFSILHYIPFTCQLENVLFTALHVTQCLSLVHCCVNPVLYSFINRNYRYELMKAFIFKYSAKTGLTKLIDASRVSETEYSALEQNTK

[6] = target: CCR1 on THP-1 cells (acute monocytic leukemia) (UniProt P32246); assay: 125I MIP-1α competition binding on cells; THP-1 cells; conditions: ligand
[7] = target: CCR1 expressed on HEK293 transfectants (UniProt P32246); assay: 125I MIP-1α competition binding on cells; HEK293-CCR1 cells; conditions: ligand
[8] = target: CCR1 expressed on NSO transfectants (UniProt P32246); assay: 125I MIP-1α competition binding on cells; NSO-CCR1 cells; conditions: ligand
CCR1 on monocytes [9] = target: CCR1 on monocytes (UniProt P32246); assay: 125I MIP-1α competition binding on cells; monocytes; conditions: ligand
CXCR4 on MCF-7 cells [10] = target: T3, CXCR4 on MCF-7 cells; assay: 125I I-TAC competition binding on MCF-7 cells
Description: as §1, with “Following incubation in all binding assays, reactions were aspirated onto PEI-treated GF/B glass filters (Packard) using a cell harvester (Packard) and washed twice (25 mM HEPES, 500 mM NaCl, 1 mM CaCl2, 5 mM MgCl2, adjusted to pH 7.1).” left out

[11] = target: CXCR4 as expressed on breast tumor cells (MCF-7, MDA MB-231) (human) (UniProt P61073); assay: homologous competition against ^125I I-TAC on MCF-7 cells pre-incubated with excess MIG (~175 nM)
[12] = target: CXCR4 as expressed on breast tumor cells (MCF-7, MDA MB-231) (human) (UniProt P61073); assay: homologous competition against ^125I I-TAC on MCF-7 cells, medium alone
CCR1 on monocytes [13] = target: T5, CCR1 on monocytes (UniProt P32246 1-355); assay: 125I MIP-1α competition binding on cells; monocytes
T5 chain: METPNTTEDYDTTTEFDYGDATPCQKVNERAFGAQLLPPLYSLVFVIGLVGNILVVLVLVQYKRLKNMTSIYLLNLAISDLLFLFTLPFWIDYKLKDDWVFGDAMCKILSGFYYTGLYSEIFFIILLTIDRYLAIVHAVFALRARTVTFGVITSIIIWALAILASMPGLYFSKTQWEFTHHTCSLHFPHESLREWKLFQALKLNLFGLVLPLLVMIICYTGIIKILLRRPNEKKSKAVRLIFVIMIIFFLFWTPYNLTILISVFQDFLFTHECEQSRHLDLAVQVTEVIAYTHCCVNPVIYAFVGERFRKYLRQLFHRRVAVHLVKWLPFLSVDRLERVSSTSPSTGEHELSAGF

[14] = target: T6, CCR1 expressed on HEK293 transfectants (UniProt P32246 1-355); assay: 125I MIP-1α competition binding on cells; HEK293-CCR1 cells
T6 chain: T5 chain

[15] = target: T7, CCR1 expressed on NSO transfectants (UniProt P32246 1-355); assay: 125I MIP-1α competition binding on cells; NSO-CCR1 cells
T7 chain: T5 chain

CCR1 [16] = target: T8, CCR1 (Homo sapiens, UniProt P32246); assay: Intracellular Ca2+ mobilization via CCR1; assay type: cell-based; design: endogenous in cells; host or cells: THP-1, monocytes, neutrophils, immature DC (endogenous); also HEK293-CCR1 and NSO-CCR1 transfectants
T8 sequence (P32246 1-355): T5 chain

[17] = target: T9, CCR1 on THP-1 cells (acute monocytic leukemia) (UniProt P32246 1-355); assay: 125I MIP-1α competition binding on cells; THP-1 cells
T9 chain: T5 chain

[18] = target: T10, CCR1 expressed on HEK293 transfectants (human, UniProt P32246 1-355); assay: competition against ^125I MIP-1α on HEK293-CCR1 cells
T10 construct: CCR1 cDNA transfected into HEK293 cells; also called HEK293-CCR1
T10 sequence: T5 chain

CCR1 [19] = target: T8, CCR1; assay: CCR1 mediated cell migration; assay type: cell-based
[20] = target: T11, CCR1 expressed on NSO transfectants (human, UniProt P32246 1-355); assay: competition against ^125I MIP-1α on NSO-CCR1 cells
T11 construct: CCR1 transfectant of NSO cells; also called NSO-CCR1
T11 sequence: T5 chain

CXCR4 on CEM-NKr cells = target: T12, CXCR4 on CEM-NKr cells (Homo sapiens, UniProt P61073); assay: 125I SDF-1α competition binding on CEM-NKr cells; conditions: cold competitor array
T12 construct: host or cells: CEM-NKr (whole cells)
T12 sequence (P61073 whole entry): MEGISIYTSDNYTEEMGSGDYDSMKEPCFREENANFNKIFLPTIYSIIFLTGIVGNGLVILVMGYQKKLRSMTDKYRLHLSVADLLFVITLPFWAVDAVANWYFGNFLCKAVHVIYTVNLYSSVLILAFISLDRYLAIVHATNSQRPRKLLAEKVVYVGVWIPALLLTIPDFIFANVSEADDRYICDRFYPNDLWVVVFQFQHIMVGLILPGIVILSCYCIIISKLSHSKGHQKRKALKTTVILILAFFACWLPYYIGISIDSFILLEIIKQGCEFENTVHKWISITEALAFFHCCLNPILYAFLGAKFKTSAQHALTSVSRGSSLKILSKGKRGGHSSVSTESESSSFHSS
Description: as §1, with “Following incubation in all binding assays, reactions were aspirated onto PEI-treated GF/B glass filters (Packard) using a cell harvester (Packard) and washed twice (25 mM HEPES, 500 mM NaCl, 1 mM CaCl2, 5 mM MgCl2, adjusted to pH 7.1).” left out

T1 sequence (P70658 whole entry): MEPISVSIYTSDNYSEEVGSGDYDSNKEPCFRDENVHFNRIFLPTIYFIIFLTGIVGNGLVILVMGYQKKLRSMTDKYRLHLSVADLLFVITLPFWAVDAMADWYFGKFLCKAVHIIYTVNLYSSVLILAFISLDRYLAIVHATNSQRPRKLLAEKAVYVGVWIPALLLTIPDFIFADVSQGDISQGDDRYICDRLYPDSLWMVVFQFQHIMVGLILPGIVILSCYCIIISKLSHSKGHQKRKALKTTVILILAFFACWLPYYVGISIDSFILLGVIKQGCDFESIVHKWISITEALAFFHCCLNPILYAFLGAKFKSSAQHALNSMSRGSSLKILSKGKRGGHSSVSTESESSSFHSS

SDF-1: CXC chemokine, ligand for CXCR4, isoform not stated
intracellular calcium mobilization in E17 fetal liver cells [1]: mobilizing intracellular calcium | cell invasion (MDA MB-231 cells): induced cell invasion | recovery from serum starvation induced apoptosis [2]: able to recover from the starvation

I-TAC: recombinant human chemokine, reported CXCR3 ligand
DisplaceMax displacement of 125I SDF-1α on MCF-7, affinity class [3]: high affinity | competition with / inhibition of 125I SDF-1α binding on MCF-7 (in words) (CXCR4 on MCF-7 cells [4]): does compete | competition with radiolabeled human-SDF-1 for binding to E13 fetal liver cells [5]: able to compete

CKβ8 (25-99) (from UniProt P55773 46-120)
IC50 [6]: 0.27 nM | IC50 [7]: 1.34 nM | IC50 [8]: 0.02 nM | IC50 (CCR1 on monocytes [9]): 0.25 nM

MIG: monokine induced by gamma interferon, CXCR3 ligand
inhibition of 125I I-TAC binding to MCF-7 by cold chemokine competitor (in words) (CXCR4 on MCF-7 cells [10]; MCF-7 cells): not inhibited | effect of pre-incubation with excess chemokine on 125I I-TAC binding to MCF-7 (CXCR4 on MCF-7 cells [10]; excess SDF-1β ~90 nM or excess MIG ~175 nM, 30 min at 4° C.): did not effect this binding profile

B1: human I-TAC (ligand, UniProt O14625 22-94, looked up)
chain: FPMFKRGRCLCIGPGVKAVKVADIEKASIMYPSNNCDKIEVIITLKENKGQRCLNPKSKQARLIIKKVERKNF
modifications: 125I label where used as the radioligand
IC50 [11]: 1 nM | IC50 [12]: 1 nM

B2: Leukotactin (ligand)
chain: SFHFAADCCTSYISQSIPCSLMKSYFETSSECSKPGVIFLTKKGRQVCAKPSGPGVQDCMKKLKPYSI
IC50 (CCR1 on monocytes [13]): < 0.2 nM | IC50 [14]: < 0.2 nM | IC50 [15]: 0.02 nM | Ca2+ mobilization in HEK293-CCR1, THP-1 and monocytes (CCR1 [16]): able to mobilize Ca2+ | Ca2+ mobilization in neutrophils (CCR1 [16]): do not mobilize Ca2+ | IC50 [17]: < 0.2 nM

B3: MIP-1α (ligand)
chain: ADTPTACCFSYTSRQIPQNFIADYFETSSQCSKPGVIFLTKRSRQVCADPSEEWVQKYVSDLELSA
modifications: also: 125I label where used as radioligand
IC50 (CCR1 on monocytes [13]): 0.27 nM | IC50 [14]: 0.54 nM | IC50 [15]: 0.15 nM | IC50 [17]: 0.17 nM

B4: CKβ8 (1-99) (ligand)
chain: RVTKDAETEFMMSKLPLENPVLLDRFHATSADCCISYTPRSIPCSLLESYFETNSECSKPGVIFLTKKGRRFCANPSDKQVQVCMRMLKLDTRIKTRKN
notes: The numbers 1-99 count on the mature chemokine, not on the precursor; also called CCL23 (99-amino acid form)
IC50 (CCR1 on monocytes [13]): 10.3 nM | IC50 [18]: 64 nM | induction of cell migration, neutrophils (CCR1 [19]; CCR1 expressed on neutrophils): does not induce cell migration | induction of CCR1 mediated cell migration, THP-1 cells, monocytes and immature DC (CCR1 [19]; THP-1 cells, monocytes and immature DC): can induce CCR1 mediated cell migration | Ca2+ mobilization in HEK293-CCR1, THP-1 and monocytes (CCR1 [16]): able to mobilize Ca2+ | Ca2+ mobilization in neutrophils (CCR1 [16]): do not mobilize Ca2+ | IC50 [17]: 6.3 nM | IC50 [20]: 3.9 nM

B5: HHV8 vMIP-II: viral recombinant chemokine (protein)
chain: LGASWHRPDKCCLGYQKRPLPQVLLSSWYPTSQLCSKPGVIFLTKRGRQVCADKSKDWVKKLMQQLPVTAR
DisplaceMax displacement of 125I SDF-1α on CEM-NKr, affinity class (CXCR4 on CEM-NKr cells): potential moderate affinity

B6: mI-TAC: murine recombinant chemokine I-TAC (protein)
chain: FLMFKQGRCLCIGPGMKAVKMAEIEKASVIYPSNGCDKVEVIVTMKAHKRQRCLDPRSKQARLIMQAIEKKNFLRRQNM
DisplaceMax displacement of 125I SDF-1α on MCF-7, affinity class [3]: high affinity

B7: MIP-1α: CC chemokine, CCR1 ligand (protein)
chain: B3 chain
Ca2+ mobilization in HEK293-CCR1, THP-1 and monocytes (CCR1 [16]): able to mobilize Ca2+ | Ca2+ mobilization in neutrophils (CCR1 [16]): do not mobilize Ca2+

B8: mMIP-1γ: CCR1 ligand (protein)
chain: QITHATETKEVQSSLKAQQGLEIEMFHMGFQDSSDCCLSYNSRIQCSRFIGYFPTSGGCTRPGIIFISKRGFQVCANPSDRRVQRCIERLEQNSQPRTYKQ
Ca2+ mobilization in HEK293-CCR1, THP-1 and monocytes (CCR1 [16]): able to mobilize Ca2+ | Ca2+ mobilization in neutrophils (CCR1 [16]): do not mobilize Ca2+

Source: patent US7413866B2, “Compositions and methods for detecting and treating diseases and conditions related to chemokine receptors” (ChemoCentryx, Inc., priority 2001, dated 2008)
